Assay results published in patent publication US20100003690A1 (published 2010).

Target: hERG 1b (human, UniProt Q12809 377-1159)
Test: cell-based or functional assay

B1: hERG 1a (other, human, UniProt Q12809 1-1159, looked up)
chain: MPVRRGHVAPQNTFLDTIIRKFEGQSRKFIIANARVENCAVIYCNDGFCELCGYSRAEVMQRPCTCDFLHGPRTQRRAAAQIAQALLGAEERKVEIAFYRKDGSCFLCLVDVVPVKNEDGAVIMFILNFEVVMEKDMVGSPAHDTNHRGPPTSWLAPGRAKTFRLKLPALLALTARESSVRSGGAGGAGAPGAVVVDVDLTPAAPSSESLALDEVTAMDNHVAGLGPAEERRALVGPGSPPRSAPGQLPSPRAHSLNPDASGSSCSLARTRSRESCASVRRASSADDIEAMRAGVLPPPPRHASTGAMHPLRSGLLNSTSDSDLVRYRTISKIPQITLNFVDLKGDPFLASPTSDREIIAPKIKERTHNVTEKVTQVLSLGADVLPEYKLQAPRIHRWTILHYSPFKAVWDWLILLLVIYTAVFTPYSAAFLLKETEEGPPATECGYACQPLAVVDLIVDIMFIVDILINFRTTYVNANEEVVSHPGRIAVHYFKGWFLIDMVAAIPFDLLIFGSGSEELIGLLKTARLLRLVRVARKLDRYSEYGAAVLFLLMCTFALIAHWLACIWYAIGNMEQPHMDSRIGWLHNLGDQIGKPYNSSGLGGPSIKDKYVTALYFTFSSLTSVGFGNVSPNTNSEKIFSICVMLIGSLMYASIFGNVSAIIQRLYSGTARYHTQMLRVREFIRFHQIPNPLRQRLEEYFQHAWSYTNGIDMNAVLKGFPECLQADICLHLNRSLLQHCKPFRGATKGCLRALAMKFKTTHAPPGDTLVHAGDLLTALYFISRGSIEILRGDVVVAILGKNDIFGEPLNLYARPGKSNGDVRALTYCDLHKIHRDDLLEVLDMYPEFSDHFWSSLEITFNLRDTNMIPGSPGSTELEGGFSRQRKRKLSFRRRTDKDTEQPGEVSALGPGRAGAGPSSRGRPGGPWGESPSSGPSSPESSEDEGPGRSSSPLRLVPFSSPRPPGEPPGGEPLMEDCEKSSDTCNPLSGAFSGVSNIFSFWGDSRGRQYQELPRCPAPTPSLLNIPLSSPGRRPRGDVESRLDALQRQLNRLETRLSADMATVLQLLQRQMTLVPPAYSAVTTPGPGPTSTSPLLPVSPLPTLTLDSLSQVSQFMACEELPPGAPELPQEGPTRRLSLPGQLGALTSQPLHRHGSDPGS
  hERG 1b maturation by Western blot analysis: ~3 fold
